Test results published in patent publication US12104181B2, “Compositions and methods for treating viral infections targeting TRIM7” (THE BOARD OF REGENTS OF THE UNIVERSITY OF TEXAS SYSTEM, priority 2021, dated 2024).

B1: RNF146: human RING type E3 ligase expressed from lentiviral vector (protein, UniProt Q9NTX7 1-359, looked up)
E3 ubiquitin-protein ligase …: MMAGCGEIDHSINMLPTNRKANESCSNTAPSLTVPECAICLQTCVHPVSLPCKHVFCYLCVKGASWLGKRCALCRQEIPEDFLDKPTLLSPEELKAASRGNGEYAWYYEGRNGWWQYDERTSRELEDAFSKGKKNTEMLIAGFLYVADLENMVQYRRNEHGRRRKIKRDIIDIPKKGVAGLRLDCDANTVNLARESSADGADSVSAQSGASVQPLVSSVRPLTSVDGQLTSPATPSPDASTSLEDSFAHLQLSGDNTAERSHRGEGEEDHESPSSGRVPAPDTSIEETESDASSDSEDVSAVVAQHSLTQQRLLVSNANQTVPDRSDRSGTDRSVAGGGTVSVSVRSRRPDGQCTVTEV
B2: RNF113B: human RING type E3 ligase expressed from lentiviral vector (protein, UniProt Q8IZP6 1-322, looked up)
RING finger protein 113B: MAAPPSPGRTADQADQVCTFLFKKPGRKGAAGLRKRPACDPEHGESSSSGDEGDTVAQPPRVAPRPRGLHSWQKAAHGDRRGEEAAPESLDVVYRSTRSAKPVGPEDMGATADFEQDTEKEHHTPTILKCSQRVQEALRGREHDHIYRGIHSYLRYLKPKDTSMGNSSSGMARKGPIRAPGHLRATVRWDYQPDICKDYKETGFCGFGDSCKFLHDRSDYKLGWEIERELEEGRYCICEDENHEVGSEEEEIPFRCFICRQAFQNPVVTKCRHYFCESCALEHFRATPRCYICDQPTGGIFNPAKELMAKLQKLQAAEGKKR
modifications: lentiviral expression
notes: human RING type E3 ligase expressed from lentiviral vector
B3: RNF11: human RING type E3 ligase expressed from lentiviral vector (protein, UniProt Q9Y3C5 2-154, looked up)
RING finger protein 11: GNCLKSPTSDDISLLHESQSDRASFGEGTEPDQEPPPPYQEQVPVPVYHPTPSQTRLATQLTEEEQIRIAQRIGLIQHLPKGVYDPGRDGSEKKIRECVICMMDFVYGDPIRFLPCMHIYHLDCIDDWLMRSFTCPSCMEPVDAALLSSYETN
B4: RNF2: human RING type E3 ligase expressed from lentiviral vector (protein, UniProt Q99496 2-336, looked up)
E3 ubiquitin-protein ligase …: SQAVQTNGTQPLSKTWELSLYELQRTPQEAITDGLEIVVSPRSLHSELMCPICLDMLKNTMTTKECLHRFCADCIITALRSGNKECPTCRKKLVSKRSLRPDPNFDALISKIYPSRDEYEAHQERVLARINKHNNQQALSHSIEEGLKIQAMNRLQRGKKQQIENGSGAEDNGDSSHCSNASTHSNQEAGPSNKRTKTSDDSGLELDNNNAAMAIDPVMDGASEIELVFRPHPTLMEKDDSAQTRYIKTSGNATVDHLSKYLAVRLALEELRSKGESNQMNLDTASEKQYTIYIATASGQFTVLNGSFSLELVSEKYWKVNKPMELYYAPTKEHK
B5: RNF133: human RING type E3 ligase expressed from lentiviral vector (protein, UniProt Q8WVZ7 1-376, looked up)
E3 ubiquitin-protein ligase …: MHLLKVGTWRNNTASSWLMKFSVLWLVSQNCCRASVVWMAYMNISFHVGNHVLSELGETGVFGRSSTLKRVAGVIVPPEGKIQNACNPNTIFSRSKYSETWLALIERGGCTFTQKIKVATEKGASGVIIYNVPGTGNQVFPMFHQAFEDVVVVMIGNLKGTEIFHLIKKGVLITAVVEVGRKHIIWMNHYLVSFVIVTTATLAYFIFYHIHRLCLARIQNRRWQRLTTDLQNTFGQLQLRVVKEGDEEINPNGDSCVICFERYKPNDIVRILTCKHFFHKNCIDPWILPHGTCPICKCDILKVLGIQVVVENGTEPLQVLMSNELPETLSPSEEETNNEVSPAGTSDKVIHVEENPTSQNNDIQPHSVVEDVHPSP
modifications: lentiviral expression
notes: as for B2
B6: RNF10: human RING type E3 ligase expressed from lentiviral vector (protein, UniProt Q8N5U6 1-811, looked up)
E3 ubiquitin-protein ligase …: MPLSSPNAAATASDMDKNSGSNSSSASSGSSKGQQPPRSASAGPAGESKPKSDGKNSSGSKRYNRKRELSYPKNESFNNQSRRSSSQKSKTFNKMPPQRGGGSSKLFSSSFNGGRRDEVAEAQRAEFSPAQFSGPKKINLNHLLNFTFEPRGQTGHFEGSGHGSWGKRNKWGHKPFNKELFLQANCQFVVSEDQDYTAHFADPDTLVNWDFVEQVRICSHEVPSCPICLYPPTAAKITRCGHIFCWACILHYLSLSEKTWSKCPICYSSVHKKDLKSVVATESHQYVVGDTITMQLMKREKGVLVALPKSKWMNVDHPIHLGDEQHSQYSKLLLASKEQVLHRVVLEEKVALEQQLAEEKHTPESCFIEAAIQELKTREEALSGLAGSRREVTGVVAALEQLVLMAPLAKESVFQPRKGVLEYLSAFDEETTEVCSLDTPSRPLALPLVEEEEAVSEPEPEGLPEACDDLELADDNLKEGTICTESSQQEPITKSGFTRLSSSPCYYFYQAEDGQHMFLHPVNVRCLVREYGSLERSPEKISATVVEIAGYSMSEDVRQRHRYLSHLPLTCEFSICELALQPPVVSKETLEMFSDDIEKRKRQRQKKAREERRRERRIEIEENKKQGKYPEVHIPLENLQQFPAFNSYTCSSDSALGPTSTEGHGALSISPLSRSPGSHADFLLTPLSPTASQGSPSFCVGSLEEDSPFPSFAQMLRVGKAKADVWPKTAPKKDENSLVPPAPVDSDGESDNSDRVPVPSFQNSFSQAIEAAFMKLDTPATSDPLSEEKGGKKRKKQKQKLLFSTSVVHTK
modifications: lentiviral expression
notes: as for B2
B7: RNF148: human RING type E3 ligase expressed from lentiviral vector (protein, UniProt Q8N7C7 35-305, looked up)
RING finger protein 148: KAIWTAHLNITFQVGNEITSELGESGVFGNHSPLERVSGVVALPEGWNQNACHPLTNFSRPKQADSWLALIERGGCTFTHKINVAAEKGANGVIIYNYQGTGSKVFPMSHQGTENIVAVMISNLKGMEILHSIQKGVYVTVIIEVGRMHMQWVSHYIMYLFTFLAATIAYFYLDCVWRLTPRVPNSFTRRRSQIKTDVKKAIDQLQLRVLKEGDEELDLNEDNCVVCFDTYKPQDVVRILTCKHFFHKACIDPWLLAHRTCPMCKCDILKT
B8: RNF111: human RING type E3 ligase expressed from lentiviral vector (protein, UniProt Q6ZNA4 1-994, looked up)
E3 ubiquitin-protein ligase …: MSQWTPEYNELYTLKVDMKSEIPSDAPKTQESLKGILLHPEPIGAAKSFPAGVEMINSKVGNEFSHLCDDSQKQEKEMNGNQQEQEKSLVVRKKRKSQQAGPSYVQNCVKENQGILGLRQHLGTPSDEDNDSSFSDCLSSPSSSLHFGDSDTVTSDEDKEVSVRHSQTILNAKSRSHSARSHKWPRTETESVSGLLMKRPCLHGSSLRRLPCRKRFVKNNSSQRTQKQKERILMQRKKREVLARRKYALLPSSSSSSENDLSSESSSSSSTEGEEDLFVSASENHQNNPAVPSGSIDEDVVVIEASSTPQVTANEEINVTSTDSEVEIVTVGESYRSRSTLGHSRSHWSQGSSSHASRPQEPRNRSRISTVIQPLRQNAAEVVDLTVDEDEPTVVPTTSARMESQATSASINNSNPSTSEQASDTASAVTSSQPSTVSETSATLTSNSTTGTSIGDDSRRTTSSAVTETGPPAMPRLPSCCPQHSPCGGSSQNHHALGHPHTSCFQQHGHHFQHHHHHHHTPHPAVPVSPSFSDPACPVERPPQVQAPCGANSSSGTSYHEQQALPVDLSNSGIRSHGSGSFHGASAFDPCCPVSSSRAAIFGHQAAAAAPSQPLSSIDGYGSSMVAQPQPQPPPQPSLSSCRHYMPPPYASLTRPLHHQASACPHSHGNPPPQTQPPPQVDYVIPHPVHAFHSQISSHATSHPVAPPPPTHLASTAAPIPQHLPPTHQPISHHIPATAPPAQRLHPHEVMQRMEVQRRRMMQHPTRAHERPPPHPHRMHPNYGHGHHIHVPQTMSSHPRQAPERSAWELGIEAGVTAATYTPGALHPHLAHYHAPPRLHHLQLGALPLMVPDMAGYPHIRYISSGLDGTSFRGPFRGNFEELIHLEERLGNVNRGASQGTIERCTYPHKYKKVTTDWFSQRKLHCKQDGEEGTEEDTEEKCTICLSILEEGEDVRRLPCMHLFHQVCVDQWLITNKKCPICRVDIEAQLPSES
B9: RNFT2: human RING type E3 ligase expressed from lentiviral vector (protein, UniProt Q96EX2 1-444, looked up)
E3 ubiquitin-protein ligase …: MWLFTVNQVLRKMQRRHSSNTDNIPPERNRSQALSSEASVDEGGVFESLKAEAASPPALFSGLSGSLPTSSFPSSLVLGSSAGGGDVFIQMPASREEGGGRGEGGAYHHRQPHHHFHHGGHRGGSLLQHVGGDHRGHSEEGGDEQPGTPAPALSELKAVICWLQKGLPFILILLAKLCFQHKLGIAVCIGMASTFAYANSTLREQVSLKEKRSVLVILWILAFLAGNTLYVLYTFSSQQLYNSLIFLKPNLEMLDFFDLLWIVGIADFVLKYITIALKCLIVALPKIILAVKSKGKFYLVIEELSQLFRSLVPIQLWYKYIMGDDSSNSYFLGGVLIVLYSLCKSFDICGRVGGVRKALKLLCTSQNYGVRATGQQCTEAGDICAICQAEFREPLILLCQHVFCEECLCLWLDRERTCPLCRSVAVDTLRCWKDGATSAHFQVY
B10: RNF139: human RING type E3 ligase expressed from lentiviral vector (protein, UniProt Q8WU17 2-664, looked up)
E3 ubiquitin-protein ligase …: AAVGPPQQQVRMAHQQVWAALEVALRVPCLYIIDAIFNSYPDSSQSRFCIVLQIFLRLFGVFASSIVLILSQRSLFKFYTYSSAFLLAATSVLVNYYASLHIDFYGAYNTSAFGIELLPRKGPSLWMALIVLQLTFGIGYVTLLQIHSIYSQLIILDLLVPVIGLITELPLHIRETLLFTSSLILTLNTVFVLAVKLKWFYYSTRYVYLLVRHMYRIYGLQLLMEDTWKRIRFPDILRVFWLTRVTAQATVLMYILRMANETDSFFISWDDFWDLICNLIISGCDSTLTVLGMSAVISSVAHYLGLGILAFIGSTEEDDRRLGFVAPVLFFILALQTGLSGLRPEERLIRLSRNMCLLLTAVLHFIHGMTDPVLMSLSASHVSSFRRHFPVLFVSACLFILPVLLSYVLWHHYALNTWLFAVTAFCVELCLKVIVSLTVYTLFMIDGYYNVLWEKLDDYVYYVRSTGSIIEFIFGVVMFGNGAYTMMFESGSKIRAFMMCLHAYFNIYLQAKNGWKTFMNRRTAVKKINSLPEIKGSRLQEINDVCAICYHEFTTSARITPCNHYFHALCLRKWLYIQDTCPMCHQKVYIEDDIKDNSNVSNNNGFIPPNETPEEAVREAAAESDRELNEDDSTDCDDDVQRERNGVIQHTGAAAEEFNDDTD

test system: coxsackievirus B3 (CVB3-GFP); format: cell-based; conditions: HeLa cells, GFP-positive cells within RFP-positive gate, replicate R1

| Molecule | Percent Infected R1 [%] |
| --- | --- |
| B1 | 89.7 |
| B2 | 88 |
| B3 | 90.7 |
| B4 | 87.4 |
| B5 | 94.9 |
| B6 | 88.9 |
| B7 | 82.3 |
| B8 | 84.2 |
| B9 | 86.5 |
| B10 | 77.5 |

same assay, conditions: HeLa cells, replicate R1

| Molecule | Z score R1 |
| --- | --- |
| B1 | 0.01 |
| B2 | −0.01 |
| B3 | 0.03 |
| B4 | −0.02 |
| B5 | 0.08 |
| B6 | 0 |
| B7 | −0.08 |
| B8 | −0.06 |
| B9 | −0.03 |
| B10 | −0.14 |
